From US9663570B2, “Single domain antibodies directed against KRAS” (SINGH MOLECULAR MEDICINE, LLC, priority 2014, dated 2017)
Where “and” joins values, the source holds several entries; their conditions need not be identical. Identical values can stand only once.

Tests used:
TNF-alpha = target: T1, TNF-alpha (Homo sapiens, UniProt P01375); test: Inhibition of TNF-alpha cytotoxicity against U937 by anti-TNF-alpha sdAbs; assay type: cell-based; settings: constant dose of TNF-alpha at EC50
T1 construct: host or cells: added exogenously to U937 cells
T1 sequence (P01375 77-233 limits assumed): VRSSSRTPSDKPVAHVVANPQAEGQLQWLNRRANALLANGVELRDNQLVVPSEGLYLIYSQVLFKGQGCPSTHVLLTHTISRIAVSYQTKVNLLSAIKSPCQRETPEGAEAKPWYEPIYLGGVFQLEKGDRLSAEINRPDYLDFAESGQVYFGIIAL

MDA-MB-231 cells = test: MTT proliferation assay, MDA-MB-231; assay type: cell-based, human; settings: for Mean Absorbance (570 nM) ± S.E., Overall Mean: mean of 4 experiments; for Mean Growth Inhibition: individual experiments 1-4;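 for all read-outs here: cultures held at 37 °C in humidified 5% CO2, treated groups compared against vehicle-treated controls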

| Molecule | inhibition of killing of U937 by TNF-alpha (TNF-alpha) | Mean Absorbance (570 nM) ± S.E. (MDA-MB-231 cells; Day 3, 10.0 μg/ml, individual experiments 1-4 (Table 6)) | Mean Absorbance (570 nM) ± S.E., Overall Mean (MDA-MB-231 cells; Day 3, 10.0 μg/ml) | Mean Absorbance (570 nM) ± S.E. (MDA-MB-231 cells; Day 3, 100 μg/ml, individual experiments 1-4 (Table 6)) | Mean Absorbance (570 nM) ± S.E., Overall Mean (MDA-MB-231 cells; Day 3, 100 μg/ml) | Mean Absorbance (570 nM) ± S.E. (MDA-MB-231 cells; Day 5, 10.0 μg/ml, individual experiments 1-4 (Table 7)) | Mean Absorbance (570 nM) ± S.E., Overall Mean (MDA-MB-231 cells; Day 5, 10.0 μg/ml) | Mean Absorbance (570 nM) ± S.E. (MDA-MB-231 cells; Day 5, 100 μg/ml, individual experiments 1-4 (Table 7)) | Mean Absorbance (570 nM) ± S.E., Overall Mean (MDA-MB-231 cells; Day 5, 100 μg/ml) | Mean Growth Inhibition (MDA-MB-231 cells; post 3 days, 10.0 μg/ml) | Mean Growth Inhibition (MDA-MB-231 cells; post 3 days, 100 μg/ml) | Mean Growth Inhibition (MDA-MB-231 cells; post 5 days, 10.0 μg/ml) | Mean Growth Inhibition (MDA-MB-231 cells; post 5 days, 100 μg/ml) |
| --- | --- | --- | --- | --- | --- | --- | --- | --- | --- | --- | --- | --- | --- |
| anti-TNF-alpha VHH62: third anti-TNF-alpha sdAb (SEQ ID NO. 47) (protein, Camelid) VHH: QVQLVESGGGPVQAGETLRLSCTASGFTFAEADMGWYRQAPGHECELVSTITTEGITSEASSYYADSVRGRFTISRDNAKNMVYLQMNSLKPEDTAVYYCAPDPYAYSTYSDYCSWAQGTQGTLVTVSS | inhibit killing of U937 by TNF-alpha |  |  |  |  |  |  |  |  |  |  |  |  |
| anti-TNF-alpha VHH69: second anti-TNF-alpha sdAb (SEQ ID NO. 46) (protein, Camelid) VHH: EVQLVESGGGSVLAGGSLRLSCVASGFTSRYNYMAWFRQAPGKEREGVATIGTASGSADYYGSVKDRFTISQDNAKNTVYLQMNSLKPEDTAMYYCAARTYGTISLTPSDYRYWGQGTLVTVSS | inhibit killing of U937 by TNF-alpha |  |  |  |  |  |  |  |  |  |  |  |  |
| B.VHH14: second anti-STAT3 sdAb, named VHH14 (SEQ ID NO. 4) (protein, Camelid) VHH: QVQLVESGGGSVQAGGSLRLSCVASTYTGCMGWFRQAPGKEREGVAALSSRGFAGHYTDSVKGRFSISRDYVKNAVYLQMNTVKPEDAAMYYCAAREGWECGETWLDRTAGGHTYWGQGTLVTVSS |  | 0.456 ± 0.048 and 0.499 ± 0.018 and 0.502 ± 0.048 and 0.559 ± 0.041 | 0.504 ± 0.021 | 0.255 ± 0.005 and 0.357 ± 0.019 and 0.308 ± 0.021 and 0.287 ± 0.021 | 0.302 ± 0.043 | 0.640 ± 0.011 and 0.338 ± 0.023 and 0.930 ± 0.044 and 0.842 ± 0.052 | 0.688 ± 0.131 | 0.549 ± 0.023 and 0.274 ± 0.032 and 0.578 ± 0.039 and 0.499 ± 0.036 | 0.475 ± 0.0690 | 23.1% and 20.0% and 38.5% and 23.3% | 57.0% and 42.8% and 62.3% and 60.6% | 5.5% and 25.9% and 5.4% and 22.9% | 18.9% and 39.9% and 41.2% and 54.3% |
